The results in this text go back to patent publication US20210171652A1 (University of Pennsylvania, published 2021).

T1: Band 3 / glycophorin A (Wright b, Wrb epitope) on human red blood cells (human, UniProt P02724 20-150)
T1 construct: whole, on cells; also called Band3/GPA; AE1
T1 sequence 1: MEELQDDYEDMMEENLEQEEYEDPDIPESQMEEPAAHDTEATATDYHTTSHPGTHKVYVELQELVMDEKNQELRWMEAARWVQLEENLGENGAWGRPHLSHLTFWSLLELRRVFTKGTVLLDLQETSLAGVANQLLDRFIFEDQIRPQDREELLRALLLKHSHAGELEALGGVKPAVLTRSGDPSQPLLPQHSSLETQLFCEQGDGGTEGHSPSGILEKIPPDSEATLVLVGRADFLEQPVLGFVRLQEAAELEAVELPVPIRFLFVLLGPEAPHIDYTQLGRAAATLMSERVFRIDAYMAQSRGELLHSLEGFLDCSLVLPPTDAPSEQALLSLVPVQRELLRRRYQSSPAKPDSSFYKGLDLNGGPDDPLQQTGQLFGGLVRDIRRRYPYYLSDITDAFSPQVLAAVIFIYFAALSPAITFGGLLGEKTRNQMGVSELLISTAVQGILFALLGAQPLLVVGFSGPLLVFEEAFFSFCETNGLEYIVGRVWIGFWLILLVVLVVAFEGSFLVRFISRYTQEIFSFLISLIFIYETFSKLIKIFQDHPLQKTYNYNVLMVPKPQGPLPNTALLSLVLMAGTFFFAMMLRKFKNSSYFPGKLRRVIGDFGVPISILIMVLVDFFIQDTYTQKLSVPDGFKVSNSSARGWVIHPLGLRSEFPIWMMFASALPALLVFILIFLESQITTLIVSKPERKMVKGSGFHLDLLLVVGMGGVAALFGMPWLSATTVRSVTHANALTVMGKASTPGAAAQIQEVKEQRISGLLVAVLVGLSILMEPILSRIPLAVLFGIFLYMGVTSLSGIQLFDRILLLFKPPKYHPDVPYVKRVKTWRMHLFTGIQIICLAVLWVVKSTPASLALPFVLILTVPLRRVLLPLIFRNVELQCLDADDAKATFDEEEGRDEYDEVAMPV
T1 sequence 2: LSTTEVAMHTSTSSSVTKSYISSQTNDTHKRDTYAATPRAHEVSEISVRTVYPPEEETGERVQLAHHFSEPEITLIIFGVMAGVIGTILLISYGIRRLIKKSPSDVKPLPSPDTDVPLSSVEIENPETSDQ

B1: KP2-09 Fab/phage clone (anti-Band 3, Wrb) (Fab, V domains shown)
VH: EVQLLESGPGLVRPSETLSLTCAVSGYSISSGYGWHWIRQPPGKGLESLGYIGGSRGNTNYNPSLKSRVTISTDTSKNQFSLKLRSVTAADTAVYYCARDSGYNTRYFDYWGQGVLVTVSS
VL: AAELTQSPATLSLSPGERATLSCRASQSVGSRLAWYQQKPGQAPRLLIYGASSRATGIPDRFSGSGSRTDFTLTISSLEPEDVGVYHCQQYNDLLPLTFGGGTKVEIK
B2: KP2-11 Fab/phage clone (anti-Band 3, Wrb) (Fab, V domains shown)
VH: EVQLQLPGPGLVKPSETLSLTCTVSGSSLSSAYGWNWIRQPPGKGLEWIGSIGGSRDNTNYNPSLKRRVTISKDTSKNQFSLKLKSVTAADTAVYYCAQRGAYGYSYFDYWGQGVLVAVSS
VL: ELTLTQSPATLSLSPGETATLSCRASQSLGSRLAWYQQKPGQPPRLLIYGASTRATGIPDRFSGSGSRTDFTLTISSLEPEDVGVYHCQQYNDFPPLTFGGGTKVEIK
B3: KP3-08 Fab/phage clone (anti-Band 3, Wrb) (Fab, V domains shown)
VH: EVQLLESGPGLVKPSETLSLTCTVSGSSLSSAYGWNWIRQPPGKGLEWIGSIGGSRDNTNYNPSLKRRVTISKDTSKNQFSLKLKSVTAADTAVYYCAQRGAYGYSYFDYWGQGVLVAVSS
VL: ELTLTQSPATLSLSPGETATLSCRASQSLGGRLAWYQQKPGQAPRLLIYGASTRATGIPDRFSGSGSRTEFTLTIAGLEPEDVGVYHCQQYNDFLPLTFGGGTKVEIK
B4: KP3-02 Fab/phage clone (anti-Band 3, Wrb) (Fab, V domains shown)
VH: EVQLLESGPGLVRPSETLSLTCAVSGYSISSGYGWHWIRQPPGKGLESLGYIGGSRGNTNYNPSLKSRVTISTDTSKNQFSLKLRSVTAADTAVYYCARDSGYNTRYFDYWGQGVLVTVSS
VL: AAELTQSPATLSLSPGETATLSCRASQSVGSNLAWYQQKPGQAPKLLVHSAYFRATGIPDRFSGSGSRTDFTLTISSLEPEDVGVYHCQQYNDLLPLTFGGGTKVEIK
B5: KP2-01 Fab/phage clone (anti-Band 3, Wrb) (Fab, V domains shown)
VH: EVQLLESGPGLVKPSETLSLTCAVSGDSISSGLGWSWIRQTPGKGLEWIGYIGGSRGNTNYNPSFKSRVTISRDTSKNQFSLRLSSMTAADTAVYYCARRAPYWGYSYLDYWGQGVLVTVSS
VL: AAELTQSPATLSLSPGETATLSCRASQSIGSSLAWYQQRPGQAPKLLVHSAYFRAAGIPDRFSGSGSRTDFTLTISSLEPEDVGVYHCQQYNDLLPLTFGGGTKVELK
B6: KP2-07 Fab/phage clone (anti-Band 3, Wrb) (Fab, V domains shown)
VH: EVQLLESGPGLVKPSETLSLTCAVSGDSISSGYGWHWIRQVPGRGLEWIGSIGGSRGTTNYNPSLKSRVTISEDTSKNQFSLSLRSVSAADTAVYFCARDSGYSFRYFDFWGQGVLVTVSS
VL: ELVMTQSPATLSLSPGETATLSCRASQSVGSNLAWYQQKPGQAPKLLVHSAYFRATGIPDRFSGSGSRTDFTLTISSLEPEDVGVYHCQQYNDLLPLTFGGGTKVEIN
B7: KP2-08 Fab/phage clone (anti-Band 3, Wrb) (Fab, V domains shown)
VH: EVQLLESGPGLVKPSETLSLTCAVSGYSISSGYGWNWIRQPPGKGLEWIGSIGGSRDNTNYNPSLKSRVTLSKDTSKNHFSLRLRSVTAADTAVYYCARDGGYGSRYMDSWGQGVLVAVSS
VL: AAELTQSPATLSLSPGEAATLSCRASQSIGTSLAWYQQKPGQAPRLLVHSAYFRATGIADRFSGSGSRTDFTLTISSLEPEDVGVYYCQQYNDLLPLTFGGGTKVEIK
B8: KP2-04 Fab/phage clone (anti-Band 3, Wrb) (Fab, V domains shown)
VH: EVQLLESGPGLVKPSETLSLTCAVSGYSLSSAYGWNWIRQSPGKGLEWIGSIGGSRDNVNYNPSLKRRVTISKDTSTNHFSLRLSSVTAADTAVYYCVRRATYGNSYFDSWGQGVQVTVSS
VL: ELTLTQSPATLSLSPGETATLSCRASQSVGSHLAWYQQKPGQAPKLLVHSAYFRATGIPDRFSGSGSRTDFTLTISSLEPEDVGVYHCQQYNDLLPLTFGGGTKVEIK
B9: KP2-02 Fab/phage clone (anti-Band 3, Wrb) (Fab, V domains shown)
VH: EVQLLESGPGLVKPSETLSLTCAVSGGSLSGGYDWSWIRQSSRKGLEWIGYIYDSRWTTNYNPSLKKRVTISIDTSKNQFSLNLKSVTAADTAVYYCARRGGYGASYFDLWGQGVLVTVSS
VL: AAELTQSPATLSLFPGETATLSCRASQSIGSHLAWYQQKPGQAPKLLVHSVSFRATGIPDRFRGSGSRTDFTLTISSLEPEDVGVYHCQQYNDLLPLTFGGGTKVEIK
B10: KP3-05 Fab/phage clone (anti-Band 3, Wrb) (Fab, V domains shown)
VH: EVQLLESGPGLVKPSETLSLTCTVSGSSLSSAYGWNWIRQPPGKGLEWIGSIGGSRDNTNYNPSLKRRVTISKDTSKNQFSLKLKSVTAADTAVYYCAQRGAYGYSYFDYWGQGVLVAVSS
VL: AAELTQSPATLSLSPGETATLSCRASQSVGSSLAWYQQKPGQAPKLLVHSAYFRATGIPDRFSGSGSRTDFTLTISSLEPEDVGVYHCHQYNDLLPLTFGGGTKVEIK
B11: KP3-15 Fab/phage clone (anti-Band 3, Wrb) (Fab, V domains shown)
VH: EVQLLESGPGLVKPSETLSLTCTVSGSSLSSAYGWNWIRQPPGKGLEWIGSIGGNRDNTNYNPSLKRRVTISKDTSKNQFSLKLKSVTAADTAVYYCAQRGAYGYSYFDYWGQGVLVAVSS
VL: AAELTQSPATLSVSPGEAATLSCRASQTVGRNLAWYQQKPGQAPKLLVHSAHFRATGIPDRFSGSGSGTDFTLTISSLEPEDAGIYHCQQYNDLLPLTFGGGTKVEIK
B12: KP3-18 Fab/phage clone (anti-Band 3, Wrb) (Fab, V domains shown)
VH: EVQLLEWGPGLVKPSETLSLTCAVSGYSLSSAYGWNWIRQSPGKGLEWIGSIGGSRDNVNYNPSLKRRVTISKDTSTNHFSLRLSSVTAADTAVYYCVRRATYGNSYFDSWGQGVQVTVSS
VL: ELTLTQSPATLSLSPGETATLSCRASQSVGSYLAWYQQKPGQAPKLLVHSAHFRATGIPDRFSGSGSRTDFTLTISSLEPEDVGVYHCQQYNDLLPLTFGGGTKVEIK
B13: KP3-13 Fab/phage clone (anti-Band 3, Wrb) (Fab, V domains shown)
VH: EVQLLESGPGLVRPSETLSLTCAVSGGSLSGGYDWSWIRQSPRKGLEWIGYIYDSRGTTNYNPSLKRRVTISIDTSKNQFSLNLKSVTAADTAVYYCARRGGYGASYFDLWGQGVLVTVSS
VL: AAELTQSPATLSLSPGETATLSCRASQSVGSNLAWYQQKPGQAPKLLVHSASVRATGIPDRFSGSGSRTDFTLTISSLEPEDVGVYHCQQYNDFFPLTFGGGTKVEIK
B14: KP3-16 Fab/phage clone (anti-Band 3, Wrb) (Fab, V domains shown)
VH: EVQLLESGPGLVKPSETLSLTCTVSGSSLSSAYGWNWIRQPPGKGLEWIGSIGGSRDNTNYNPSLKRRVTISKDTSKNQFSLKLKSVTAADTAVYYCAQRGAYGYSYFDYWGQGVLVAVSS
VL: AAELTQSPATLSLSPGETATLSCRASQSLGSRLAWYQQKPGQAPRLLIYGASTRATGIPDRFSGSGSRTDFTLTISSLEPEDVGVYHCQQYNDFLPLTFGGGTKVEIK
B15: KP2-06 Fab/phage clone (anti-Band 3, Wrb) (Fab, V domains shown)
VH: EVQLLESGPGLVKPSETLSLTCTVSGSSLSSAYGWNWIRQPPGKGLEWIGSIGGSRDNTNYNPSLKRRVTISKDTSKNQFSLKLKSVTAADTAVYYCAQRGAYGYSYFDYWGQGVLVAVSS
VL: AAELTQSPATLSLSPGETATLSCRASQSVGSSLAWYQQKPGQAPKLLVHSISVRATGIPDRFSGSGSRTDFTLTITSLEPEDVGVYHCQQYNDFFPLTFGGGTKVEIK

For this test, the target named is T1, Band 3 / glycophorin A (Wright b, Wrb …). Kind of test: Fab/phage binding assays on human RBCs incl. rare RBC types lacking conserved antigens. How it is done:
An IgG Fab/phage display library was prepared from the peripheral blood lymphocytes of a hyperimmunized macaque using homologous human V-region oligonucleotides (Siegel D L, R. M., Lee H, Blancher A., Production of large repertories of macaque mAbs to human RBCs using phage display. Transfusion, 1999. 39(S10): p. 92S, which is incorporated herein by reference). Fab/phage specific for human RBCs were isolated by panning on intact human RBCs. Monoclonal Fab/phage were grown to produce antibodies for immunoassays and their corresponding DNA was extracted for sequencing. To identify target epitopes, antibodies were screened against RBCs of known serologic phenotypes, including rare cells lacking highly conserved antigens, using standard immunohematologic techniques (Roback, J. D., Technical Manual. 2014: American Association of Blood Banks (AABB), which is incorporated herein by reference.)
Using antibody phage display, we identified non-human-primate Fab antibody fragments to antigenic determinants on human RBCs. By panning phage libraries on human RBCs, we produced a Fab/phage preparation with >10⁷ RBC-specific clones capable of agglutinating human RBCs. By performing binding assays against rare RBC types lacking highly conserved antigens and epitopes, we identified the target antigens of >30 of these clones. At least 34 clones bound the Wright b (Wrb) epitope formed by a Band 3/GPA interaction, present on the RBCs of essentially 100% of the human population. The Wrb epitope, determined by the protein sequence of Band 3, is a site of association between Band 3 with GPA, and GPA expression is simultaneously required for its presence on the membrane (Huang C H, Reid M E, Xie S S, Blumenfeld 00. Human red blood cell Wright antigens: a genetic and evolutionary perspective on glycophorin A-band 3 interaction. Blood. 1996; 87(9):3942-3947). At least 3 other clones bound to a highly-conserved epitope Rh17(Hr0) on human RhCE protein, also present on essentially 100% of the human population. Both these targets are specific for erythroid lineage (Rojewski M T, Schrezenmeier H, Flegel W A. Tissue distribution of blood group membrane proteins beyond red cells: evidence from cDNA libraries. Transfus Apher Sci.
Consider B1, for which the binding result is given as “binds”.
With B2, the binding result is “binds”.
Then B3, with “binds”.
In the case of B4, the binding result is recorded as “binds”.
For the molecule B5, the binding result is “binds”.
With B6, the binding result is recorded as “binds”.
For the molecule B7, the binding result is listed as “binds”.
With B8 the entry was “binds”; with B9, “binds”; with B10, “binds”.
With B11 the entry was “binds”; with B12, “binds”; with B13, “binds”.
With B14 the entry was “binds”; with B15, “binds”.
